Legend:
[1] = molecular target: pHuD peptide presented by HLA-A2 on T2 cells (human); experiment: cell-based or functional assay
[2] = molecular target: HLA/pHuD complex (HLA-A0201 with the modified peptide pHuD), HLA/peptide complex used in surface plasmon resonance (human); experiment: surface plasmon resonance, soluble TCR and HLA/peptide complex
[3] = molecular target: HLA/pTax complex (HLA-A0201 with the pTax peptide of HTLV-1 Tax), HLA/peptide complex used in surface plasmon resonance (human); experiment: as above

Substance	kinetic of CD107 upregulation [1] [h]	peptide needed to trigger a CD107 response [1] [fold]	Kd [2] [µM]	Kd [3] [µM]	half-life t1/2 [3] [s]
Tax-TCR expressed on transduced Jurkat cells or primary human T cells (pMP71 retroviral construct)	4	10	–	–	–
wild type Tax-TCR, soluble TCR molecule (HLA-A0201-restricted TCR specific for the pTax peptide of HTLV-1 Tax)	–	–	123	1.8	9.3
